# Data: the supplement of paper PMC10899765
# Tests used:
# Conditions in all cases: 20 nM; 72 h
# MCF10A [1] = experiment: 5+ nucleoli phenotype percent effect (relative to siNT 0% and siKIF11 100%); higher = more cells with five or more nucleoli
# Procedure: (§1)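 After 72 h, cells were fixed and stained with Hoechst and anti-fibrillarin, and nucleoli per nucleus were counted with CellProfiler. Values are plate-adjusted percent effect for the one-nucleolus and 5+ nucleoli phenotypes, normalised to siNT (0%) and to the positive controls siNOL11 or siKIF11 (100%), as the mean of biological triplicates. Percent viability is the nuclei count relative to siNT.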
# MCF10A [2] = experiment: percent viability (nuclei count relative to siNT); higher = more viable cells
# Procedure: as §1
# MCF10A [3] = experiment: one-nucleolus phenotype percent effect (relative to siNT 0% and siNOL11 100%); higher = more cells with one nucleolus (ribosome biogenesis inhibition)
# Procedure: as §1
sequence,measurement,setting,value
UGCUCAGGUUGCACAGCUGGGA [hsa-miR-3934-3p],5+ nucleoli phenotype percent effect,MCF10A [1],-20.7%
same,percent viability,MCF10A [2],52.8%
same,one-nucleolus phenotype percent effect,MCF10A [3],9.77%
ACCUGAAUUACCAAAAGCUUU [hsa-miR-3140-5p],5+ nucleoli phenotype percent effect,MCF10A [1],26.3%
same,percent viability,MCF10A [2],118%
same,one-nucleolus phenotype percent effect,MCF10A [3],-18.7%
CCUAGACACCUCCAGUUC [hsa-miR-4305],5+ nucleoli phenotype percent effect,MCF10A [1],-1.06%
same,percent viability,MCF10A [2],39.4%
same,one-nucleolus phenotype percent effect,MCF10A [3],-1.35%
GAGACUGGGGUGGGGCC [hsa-miR-4463],5+ nucleoli phenotype percent effect,MCF10A [1],-7.37%
same,percent viability,MCF10A [2],64.8%
same,one-nucleolus phenotype percent effect,MCF10A [3],-14.3%
GGGAGUCUACAGCAGGG [hsa-miR-4294],5+ nucleoli phenotype percent effect,MCF10A [1],-26.3%
same,percent viability,MCF10A [2],37.7%
same,one-nucleolus phenotype percent effect,MCF10A [3],24%
CUUUGCUUCCUGCUCCCCUAG [hsa-miR-6885-3p],5+ nucleoli phenotype percent effect,MCF10A [1],-17.3%
same,percent viability,MCF10A [2],41.6%
same,one-nucleolus phenotype percent effect,MCF10A [3],-5.84%
CGAAUCAUUAUUUGCUGCUCUA [hsa-miR-15b-3p],5+ nucleoli phenotype percent effect,MCF10A [1],28.9%
same,percent viability,MCF10A [2],131%
same,one-nucleolus phenotype percent effect,MCF10A [3],-19.7%
UCUGUAUUCUCCUUUGCCUGCAG [hsa-miR-4742-3p],5+ nucleoli phenotype percent effect,MCF10A [1],3.24%
same,percent viability,MCF10A [2],24.4%
same,one-nucleolus phenotype percent effect,MCF10A [3],6.5%
CAGAACAGGAGCAUAGAAAGGC [hsa-miR-4773],5+ nucleoli phenotype percent effect,MCF10A [1],22.9%
same,percent viability,MCF10A [2],43.7%
same,one-nucleolus phenotype percent effect,MCF10A [3],-20.2%
UCGUGUCCCUCUUGUCCACAG [hsa-miR-6774-3p],5+ nucleoli phenotype percent effect,MCF10A [1],58.8%
same,percent viability,MCF10A [2],70%
same,one-nucleolus phenotype percent effect,MCF10A [3],-27%
UCGGGCGCAAGAGCACUGCAGU [hsa-miR-6499-5p],5+ nucleoli phenotype percent effect,MCF10A [1],-9.6%
same,percent viability,MCF10A [2],43.5%
same,one-nucleolus phenotype percent effect,MCF10A [3],0.719%
UCAUAUUGCUUCUUUCU [hsa-miR-1279],5+ nucleoli phenotype percent effect,MCF10A [1],35.8%
same,percent viability,MCF10A [2],187%
same,one-nucleolus phenotype percent effect,MCF10A [3],-26.6%
UCGGCCUGGGGAGGAGGAAGGG [hsa-miR-7107-5p],5+ nucleoli phenotype percent effect,MCF10A [1],26.1%
same,percent viability,MCF10A [2],77.4%
same,one-nucleolus phenotype percent effect,MCF10A [3],-28.2%
CAUAAAGUAGAAAGCACUACU [hsa-miR-142-5p],5+ nucleoli phenotype percent effect,MCF10A [1],15%
same,percent viability,MCF10A [2],82.4%
same,one-nucleolus phenotype percent effect,MCF10A [3],-15.5%
UGGUCUGUUCAUUCUCUCUUUUUGGCC [hsa-miR-7107-3p],5+ nucleoli phenotype percent effect,MCF10A [1],0.728%
same,percent viability,MCF10A [2],15%
same,one-nucleolus phenotype percent effect,MCF10A [3],13.2%
UCAGAUGAUCUAAAGGCCUAUA [hsa-miR-1245b-3p],5+ nucleoli phenotype percent effect,MCF10A [1],-4.77%
same,percent viability,MCF10A [2],34.5%
same,one-nucleolus phenotype percent effect,MCF10A [3],9.29%
AUGCUGACAUAUUUACUAGAGG [hsa-miR-628-5p],5+ nucleoli phenotype percent effect,MCF10A [1],32.8%
same,percent viability,MCF10A [2],107%
same,one-nucleolus phenotype percent effect,MCF10A [3],-9.78%
AAGUGCCGCCAUCUUUUGAGUGU [hsa-miR-371a-3p],5+ nucleoli phenotype percent effect,MCF10A [1],-0.0057%
same,percent viability,MCF10A [2],45.8%
same,one-nucleolus phenotype percent effect,MCF10A [3],-8.12%
AGGGACUUUCAGGGGCAGCUGU [hsa-miR-365b-5p],5+ nucleoli phenotype percent effect,MCF10A [1],19.9%
same,percent viability,MCF10A [2],36.2%
same,one-nucleolus phenotype percent effect,MCF10A [3],4.45%
UCUAGGCUGGUACUGCUGA [hsa-miR-645],5+ nucleoli phenotype percent effect,MCF10A [1],7.45%
same,percent viability,MCF10A [2],59.5%
same,one-nucleolus phenotype percent effect,MCF10A [3],-11.5%
